Here are results for four substances from US20230241187A1.

In assay [1] the target is insulin receptor (IR). As to the kind of experiment: competition ELISA, plate-bound Insulin-R, 20 nM insulin-biotin, competitor 2000 nM, average.
Assay [2] addresses insulin receptor (IR). The assay is described as follows: competition ELISA, plate-bound Insulin-R, 20 nM insulin-biotin, competitor 7.8125 nM, replicate 2.
The target in assay [3] is insulin receptor (IR). The assay is described as follows: competition ELISA, plate-bound Insulin-R, 20 nM insulin-biotin, competitor […], replicate 1.
The target in assay [4] is insulin receptor (IR). As to the kind of experiment: competition ELISA, plate-bound Insulin-R, 20 nM insulin-biotin, competitor 2000 nM, replicate 1.
Assay [5] concerns the target insulin receptor (IR). The assay is described as follows: competition ELISA, plate-bound Insulin-R, 20 nM insulin-biotin, competitor 15.625 nM, replicate 2.
Assay [6] deals with insulin receptor (IR). The assay is described as follows: competition ELISA, plate-bound Insulin-R, 20 nM insulin-biotin, competitor 15.625 nM, replicate 1.
The target in assay [7] is insulin receptor (IR). As to the kind of experiment: competition ELISA, plate-bound Insulin-R, 20 nM insulin-biotin, competitor 1.95313 nM, replicate 1.
Assay [8] addresses insulin receptor (IR). As to the kind of experiment: competition ELISA, plate-bound Insulin-R, 20 nM insulin-biotin, competitor 3.90625 nM, average.
Assay [9] has as its target insulin receptor (IR). As to the kind of experiment: competition ELISA, plate-bound Insulin-R, 20 nM insulin-biotin, competitor 500 nM, average.
Assay [10] concerns the target insulin receptor (IR). As to the kind of experiment: competition ELISA, plate-bound Insulin-R, 20 nM insulin-biotin, competitor 2000 nM, replicate 2.
The target in assay [11] is insulin receptor (IR). As to the kind of experiment: competition ELISA, plate-bound Insulin-R, 20 nM insulin-biotin, competitor 7.8125 nM, average.
The target of assay [12] is insulin receptor (IR). The assay is described as follows: competition ELISA, plate-bound Insulin-R, 20 nM insulin-biotin, competitor 3.90625 nM, replicate 1.
The target of assay [13] is insulin receptor (IR). As to the kind of experiment: competition ELISA, plate-bound Insulin-R, 20 nM insulin-biotin, competitor 62.5 nM, average.
Assay [14] deals with insulin receptor (IR). The assay is described as follows: competition ELISA, plate-bound Insulin-R, 20 nM insulin-biotin, competitor 1.95313 nM, average.
Assay [15] concerns the target insulin receptor (IR). The assay is described as follows: competition ELISA, plate-bound Insulin-R, 20 nM insulin-biotin, competitor 500 nM, replicate 2.
Assay [16] deals with insulin receptor (IR). As to the kind of experiment: competition ELISA, plate-bound Insulin-R, 20 nM insulin-biotin, competitor 31.25 nM, replicate 2.
The target of assay [17] is insulin receptor (IR). The assay is described as follows: competition ELISA, plate-bound Insulin-R, 20 nM insulin-biotin, competitor 31.25 nM, average.
In assay [18] the target is insulin receptor (IR). As to the kind of experiment: competition ELISA, plate-bound Insulin-R, 20 nM insulin-biotin, competitor 250 nM, replicate 2.
In assay [19] the target is insulin receptor (IR). The assay is described as follows: competition ELISA, plate-bound Insulin-R, 20 nM insulin-biotin, competitor 3.90625 nM, replicate 2.
The target in assay [20] is insulin receptor (IR). As to the kind of experiment: competition ELISA, plate-bound Insulin-R, 20 nM insulin-biotin, competitor 1000 nM, replicate 2.
The target of assay [21] is insulin receptor (IR). As to the kind of experiment: competition ELISA, plate-bound Insulin-R, 20 nM insulin-biotin, competitor 250 nM, average.
Assay [22] has as its target insulin receptor (IR). As to the kind of experiment: competition ELISA, plate-bound Insulin-R, 20 nM insulin-biotin, competitor 7.8125 nM, replicate 1.
The target of assay [23] is insulin receptor (IR). The assay is described as follows: competition ELISA, plate-bound Insulin-R, 20 nM insulin-biotin, competitor 1000 nM, average.
In assay [24] the target is insulin receptor (IR). The assay is described as follows: competition ELISA, plate-bound Insulin-R, 20 nM insulin-biotin, competitor […], average.
The target in assay [25] is insulin receptor (IR). As to the kind of experiment: competition ELISA, plate-bound Insulin-R, 20 nM insulin-biotin, competitor 250 nM, replicate 1.
Assay [26] concerns the target insulin receptor (IR). As to the kind of experiment: competition ELISA, plate-bound Insulin-R, 20 nM insulin-biotin, competitor 500 nM, replicate 1.
Assay [27] addresses insulin receptor (IR). As to the kind of experiment: competition ELISA, plate-bound Insulin-R, 20 nM insulin-biotin, competitor 15.625 nM, average.
Assay [28] has as its target insulin receptor (IR). As to the kind of experiment: competition ELISA, plate-bound Insulin-R, 20 nM insulin-biotin, competitor 1000 nM, replicate 1.
For assay [29], the target named is insulin receptor (IR). The assay is described as follows: competition ELISA, plate-bound Insulin-R, 20 nM insulin-biotin, competitor 62.5 nM, replicate 1.
Assay [30] has as its target insulin receptor (IR). The assay is described as follows: competition ELISA, plate-bound Insulin-R, 20 nM insulin-biotin, competitor 1.95313 nM, replicate 2.
In assay [31] the target is insulin receptor (IR). The assay is described as follows: competition ELISA, plate-bound Insulin-R, 20 nM insulin-biotin, competitor 62.5 nM, replicate 2.
For assay [32], the target named is insulin receptor (IR). The assay is described as follows: competition ELISA, plate-bound Insulin-R, 20 nM insulin-biotin, competitor 31.25 nM, replicate 1.
The target of assay [33] is insulin receptor (IR). The assay is described as follows: competition ELISA, plate-bound Insulin-R, 20 nM insulin-biotin, competitor […], replicate 2.
The target in assay [34] is insulin receptor (IR). The assay is described as follows: plate-bound Insulin-R, 20 nM insulin-biotin, 0 nM competitor (Insulin series), average.
Assay [35] deals with insulin receptor (IR). As to the kind of experiment: plate-bound Insulin-R, 20 nM insulin-biotin, 0 nM competitor (Insulin series), replicate 2.
The target of assay [36] is insulin receptor (IR). As to the kind of experiment: plate-bound Insulin-R, 20 nM insulin-biotin, 0 nM competitor (IFG-II series), replicate 2.
Assay [37] addresses insulin receptor (IR). As to the kind of experiment: plate-bound Insulin-R, 20 nM insulin-biotin, 0 nM competitor (ZC701B20 series), average.
The target in assay [38] is insulin receptor (IR). As to the kind of experiment: plate-bound Insulin-R, 20 nM insulin-biotin, 0 nM competitor (ZC701B20 series), replicate 1.
Assay [39] deals with insulin receptor (IR). The assay is described as follows: plate-bound Insulin-R, 20 nM insulin-biotin, 0 nM competitor (Insulin series), replicate 1.
For assay [40], the target named is insulin receptor (IR). The assay is described as follows: plate-bound Insulin-R, 20 nM insulin-biotin, 0 nM competitor (ZC1487B26 series), average.
The target of assay [41] is insulin receptor (IR). As to the kind of experiment: plate-bound Insulin-R, 20 nM insulin-biotin, 0 nM competitor (ZC1487B26 series), replicate 2.
The target of assay [42] is insulin receptor (IR). The assay is described as follows: plate-bound Insulin-R, 20 nM insulin-biotin, 0 nM competitor (ZC701B20 series), replicate 2.
Assay [43] deals with insulin receptor (IR). The assay is described as follows: plate-bound Insulin-R, 20 nM insulin-biotin, 0 nM competitor (IFG-II series), replicate 1.
Assay [44] addresses insulin receptor (IR). The assay is described as follows: plate-bound Insulin-R, 20 nM insulin-biotin, 0 nM competitor (ZC1487B26 series), replicate 1.
The target of assay [45] is insulin receptor (IR). As to the kind of experiment: plate-bound Insulin-R, 20 nM insulin-biotin, 0 nM competitor (IFG-II series), average.
In assay [46] the target is ConA (ConA-sepharose beads). The assay is described as follows: pull-down on ConA-sepharose beads, GUS activity in flow through.

periodate/borohydride modified ß-glucuronidase (enzyme), sequence (P08236 23-651): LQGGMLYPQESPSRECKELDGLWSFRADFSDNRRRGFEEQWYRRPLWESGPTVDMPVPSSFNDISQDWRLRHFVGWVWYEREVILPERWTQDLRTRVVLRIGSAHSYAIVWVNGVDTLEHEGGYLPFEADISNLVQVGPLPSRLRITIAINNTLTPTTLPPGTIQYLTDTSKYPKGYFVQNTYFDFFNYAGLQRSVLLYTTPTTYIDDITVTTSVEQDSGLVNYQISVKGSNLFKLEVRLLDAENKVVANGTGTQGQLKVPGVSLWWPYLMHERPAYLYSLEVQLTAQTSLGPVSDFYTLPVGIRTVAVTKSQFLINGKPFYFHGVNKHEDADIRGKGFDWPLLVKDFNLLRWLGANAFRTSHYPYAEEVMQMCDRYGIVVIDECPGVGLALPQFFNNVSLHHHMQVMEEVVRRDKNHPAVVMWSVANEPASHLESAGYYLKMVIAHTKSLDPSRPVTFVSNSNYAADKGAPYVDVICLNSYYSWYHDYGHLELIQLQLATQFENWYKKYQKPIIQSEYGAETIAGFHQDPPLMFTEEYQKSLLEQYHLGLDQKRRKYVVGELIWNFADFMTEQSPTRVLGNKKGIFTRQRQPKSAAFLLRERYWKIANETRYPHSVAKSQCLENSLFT

For the substance “IGF-II (wild-type, non-biotinylated control ligand) (from UniProt P01344 25-91)”, the Chemiluminescence Intensity amounted to 105 with insulin receptor (IR) [1]; 1480 with insulin receptor (IR) [2]; 828 with insulin receptor (IR) [3]; 70 in the assay with insulin receptor (IR) [4]; 1380 with insulin receptor (IR) [5]; 1490 with insulin receptor (IR) [6]. Also, the Chemiluminescence Intensity in the assay with insulin receptor (IR) [7] is 1410; with insulin receptor (IR) [8], 1420; with insulin receptor (IR) [9], 368; in the assay with insulin receptor (IR) [10], 140; with insulin receptor (IR) [11], 1480; with insulin receptor (IR) [12], 1480. The Chemiluminescence Intensity in the assay with insulin receptor (IR) [13] came to 1110; with insulin receptor (IR) [14] it was 1330; with insulin receptor (IR) [15], 379; with insulin receptor (IR) [16], 1450; with insulin receptor (IR) [17], 1320; in the assay with insulin receptor (IR) [18] it was 566. The Chemiluminescence Intensity with insulin receptor (IR) [19] worked out at 1370; in the assay with insulin receptor (IR) [20], 176; in the assay with insulin receptor (IR) [21], 605; in the assay with insulin receptor (IR) [22], 1480; in the assay with insulin receptor (IR) [23], 222; in the assay with insulin receptor (IR) [24] it was 874. Further, the Chemiluminescence Intensity is 644 with insulin receptor (IR) [25]; 356 with insulin receptor (IR) [26]; 1430 in the assay with insulin receptor (IR) [27]; 268 with insulin receptor (IR) [28]; 991 in the assay with insulin receptor (IR) [29]; 1250 in the assay with insulin receptor (IR) [30]. In addition, the Chemiluminescence Intensity amounted to 1220 with insulin receptor (IR) [31], 1190 with insulin receptor (IR) [32] and 919 with insulin receptor (IR) [33].
“Insulin (non-biotinylated control) (from UniProt P01308 25-54; P01308 90-110) (ligand)”: the Chemiluminescence Intensity with insulin receptor (IR) [1] turned out to be 25.5; with insulin receptor (IR) [2], 1000; with insulin receptor (IR) [3], 243; in the assay with insulin receptor (IR) [4], 38; in the assay with insulin receptor (IR) [5] it was 885; in the assay with insulin receptor (IR) [6] it was 780. In addition, the Chemiluminescence Intensity was determined as 1050 in the assay with insulin receptor (IR) [7]; 1260 in the assay with insulin receptor (IR) [8]; 61.5 in the assay with insulin receptor (IR) [9]; 13 with insulin receptor (IR) [10]; 753 with insulin receptor (IR) [11]; 1180 in the assay with insulin receptor (IR) [12]. Besides, the Chemiluminescence Intensity in the assay with insulin receptor (IR) [13] turned out to be 498; with insulin receptor (IR) [14], 1250; in the assay with insulin receptor (IR) [15], 57; with insulin receptor (IR) [16] it was 517; with insulin receptor (IR) [17], 634; with insulin receptor (IR) [18], 141. In addition, the Chemiluminescence Intensity with insulin receptor (IR) [19] was 1340; in the assay with insulin receptor (IR) [20] it was 25; with insulin receptor (IR) [21], 122; in the assay with insulin receptor (IR) [22] it was 503; with insulin receptor (IR) [23] it was 34; with insulin receptor (IR) [24], 236. The Chemiluminescence Intensity with insulin receptor (IR) [25] was 102; with insulin receptor (IR) [26], 66; with insulin receptor (IR) [27] it was 832; with insulin receptor (IR) [28], 43; in the assay with insulin receptor (IR) [29], 479; with insulin receptor (IR) [30] it was 1460. The Chemiluminescence Intensity in the assay with insulin receptor (IR) [31] was found to be 517; with insulin receptor (IR) [32] it was 750; with insulin receptor (IR) [33], 229.
For “Insulin-biotin (biotinylated insulin) (from UniProt P01308 25-54; P01308 90-110) (ligand)”, the Chemiluminescence Intensity with insulin receptor (IR) [34] is 1940; with insulin receptor (IR) [35], 1690; with insulin receptor (IR) [36], 1960; in the assay with insulin receptor (IR) [37], 1840; with insulin receptor (IR) [38] it was 1790; with insulin receptor (IR) [39] it was 2180. In addition, the Chemiluminescence Intensity stood at 2010 with insulin receptor (IR) [40]; 2070 with insulin receptor (IR) [41]; 1890 with insulin receptor (IR) [42]; 1870 in the assay with insulin receptor (IR) [43]; 1950 with insulin receptor (IR) [44]; 1920 with insulin receptor (IR) [45].
For the substance “periodate/borohydride modified ß-glucuronidase (enzyme)”, the ConA binding activity lost in assay [46] stood at 60%.
